In the supplement of paper PMC11246515:
± gives the standard deviation of the averaged measurements.

Experiment: total protein half-life in vivo (active degradation + dilution); higher = more stable protein
[1] = E. coli NCM3722 delta-smpB, growth: N-lim chemostat, doubling time 6 h
[2] = wild type E. coli NCM3722, growth: C-lim chemostat, doubling time 3 h
[3] = wild type E. coli NCM3722, growth: C-lim chemostat, doubling time 6 h
[4] = wild type E. coli NCM3722, growth: C-lim chemostat, doubling time 12 h
[5] = wild type E. coli NCM3722, growth: P-lim chemostat, doubling time 12 h
[6] = E. coli NCM3722 delta-clpP delta-lon delta-hslV, growth: N-lim chemostat, doubling time 6 h
[7] = E. coli NCM3722 delta-clpP, growth: N-lim chemostat, doubling time 6 h
[8] = E. coli NCM3722 delta-hslV, growth: N-lim chemostat, doubling time 6 h
[9] = E. coli NCM3722 delta-lon, growth: N-lim chemostat, doubling time 6 h
[10] = wild type E. coli NCM3722, growth: N-lim chemostat, doubling time 6 h
[11] = wild type E. coli NCM3722, growth: N-lim chemostat, doubling time 12 h
[12] = wild type E. coli NCM3722, growth: P-lim chemostat, doubling time 6 h

Sequence: MTKTLLDGPGRVLESVYPRFLVDLAQGDDARLPQAHQQQFRERLMQELLSRVQLQTWTNGGMLNAPLSLRLTLVEKLASMLDPGHLALTQIAQHLALLQKMDHRQHSAFPELPQQIAALYEWFSARCRWKEKALTQRGLLVQAGDQSEQIFTRWRAGAYNAWSLPGRCFIVLEELRWGAFGDACRLGSPQAVALLLGDLLEKATQHLAESINAAPTTRHYYHQWFASSTVPTGGEHADFLSWLGKWTTADKQPVCWSVTQRWQTVALGMPRLCSAQRLAGAMLEEIFSVNLA
- total protein half-life in vivo [1]: 3.06 h
- total protein half-life in vivo [2]: 2.56 ± 0.43 h
- total protein half-life in vivo [3]: 5.83 ± 1.1 h
- total protein half-life in vivo [4]: 7.8 h
- total protein half-life in vivo [5]: 12.1 ± 0.79 h

Sequence: MTKYALVGDVGGTNARLALCDIASGEISQAKTYSGLDYPSLEAVIRVYLEEHKVEVKDGCIAIACPITGDWVAMTNHTWAFSIAEMKKNLGFSHLEIINDFTAVSMAIPMLKKEHLIQFGGAEPVEGKPIAVYGAGTGLGVAHLVHVDKRWVSLPGEGGHVDFAPNSEEEAIILEILRAEIGHVSAERVLSGPGLVNLYRAIVKADNRLPENLKPKDITERALADSCTDCRRALSLFCVIMGRFGGNLALNLGTFGGVFIAGGIVPRFLEFFKASGFRAAFEDKGRFKEYVHDIPVYLIVHDNPGLLGSGAHLRQTLGHIL [P0A6V8]
- total protein half-life in vivo [6]: 5.167 ± 0.05 h
- total protein half-life in vivo [7]: 5.45 ± 0.21 h
- total protein half-life in vivo [8]: 4.8 ± 0.84 h
- total protein half-life in vivo [9]: 5.7 ± 0.3 h
- total protein half-life in vivo [1]: 5.16 ± 0.58 h
- total protein half-life in vivo [2]: 2.78 ± 0.35 h
- total protein half-life in vivo [3]: 6.3 ± 0.76 h
- total protein half-life in vivo [10]: 5 ± 1.4 h
- total protein half-life in vivo [11]: 9.21 ± 0.77 h
- total protein half-life in vivo [5]: 15.2 ± 1.1 h

Sequence: MTLETAFMLPVQDAQHSFRRLLKAMSEPGVIVALHQLKRGWQPLNIATTSVLLTLADNDTPVWLSTPLNNDIVNQSLRFHTNAPLVSQPEQATFAVTDEAISSEQLNALSTGTAVAPEAGATLILQVASLSGGRMLRLTGAGIAEERMIAPQLPECILHELTERPHPFPLGIDLILTCGERLLAIPRTTHVEVC
- total protein half-life in vivo [12]: 1.74 ± 0.51 h
- total protein half-life in vivo [5]: 3.12 ± 1.3 h

Sequence: MTLKELLVGFGTQVRSIWMIGLHAFAKRETRMYPEEPVYLPPRYRGRIVLTRDPDGEERCVACNLCAVACPVGCISLQKAETKDGRWYPEFFRINFSRCIFCGLCEEACPTTAIQLTPDFEMGEYKRQDLVYEKEDLLISGPGKYPEYNFYRMAGMAIDGKDKGEAENEAKPIDVKSLLP [P0AFD6]
- total protein half-life in vivo [6]: 6.29 ± 0.46 h
- total protein half-life in vivo [7]: 7.36 ± 0.22 h
- total protein half-life in vivo [8]: 6.38 ± 0.14 h
- total protein half-life in vivo [9]: 7.21 ± 0.13 h
- total protein half-life in vivo [1]: 6.351 ± 0.056 h
- total protein half-life in vivo [2]: 3.32 ± 0.17 h
- total protein half-life in vivo [3]: 6.25 ± 0.18 h
- total protein half-life in vivo [4]: 12 ± 1.3 h
- total protein half-life in vivo [10]: 5.99 ± 1.2 h
- total protein half-life in vivo [11]: 15.2 ± 0.83 h
- total protein half-life in vivo [12]: 6 ± 0.08 h
- total protein half-life in vivo [5]: 13.6 ± 2.2 h

Sequence: MTLLNISGLSHHYAHGGFNGKHQHQAVLNNVSLTLKSGETVALLGRSGCGKSTLARLLVGLESPAQGNISWRGEPLAKLNRAQRKAFRRDIQMVFQDSISAVNPRKTVREILREPMRHLLSLKKSEQLARASEMLKAVDLDDSVLDKRPPQLSGGQLQRVCLARALAVEPKLLILDEAVSNLDLVLQAGVIRLLKKLQQQFGTACLFITHDLRLVERFCQRVMVMDNGQIVETQVVGEKLTFSSDAGRVLQNAVLPAFPVRRRTTEKV
- total protein half-life in vivo [6]: 6.58 h

Sequence: MTLNKTDRIVITLGKQIVHGKYVPGSPLPAEAELCEEFATSRNIIREVFRSLMAKRLIEMKRYRGAFVAPRNQWNYLDTDVLQWVLENDYDPRLISAMSEVRNLVEPAIARWAAERATSSDLAQIESALNEMIANNQDREAFNEADIRYHEAVLQSVHNPVLQQLSIAISSLQRAVFERTWMGDEANMPQTLQEHKALFDAIRHQDGDAAEQAALTMIASSTRRLKEIT
- total protein half-life in vivo [6]: 5.42 ± 0.19 h
- total protein half-life in vivo [7]: 5.12 ± 0.7 h
- total protein half-life in vivo [8]: 4.89 ± 0.076 h
- total protein half-life in vivo [9]: 5.07 ± 0.42 h
- total protein half-life in vivo [1]: 4.36 ± 0.15 h
- total protein half-life in vivo [2]: 2.87 ± 0.24 h
- total protein half-life in vivo [3]: 5.54 ± 0.089 h
- total protein half-life in vivo [4]: 9.94 ± 0.54 h
- total protein half-life in vivo [10]: 4.79 ± 0.079 h
- total protein half-life in vivo [11]: 7.99 ± 0.64 h
- total protein half-life in vivo [12]: 4.902 ± 0.047 h
- total protein half-life in vivo [5]: 10.15 ± 0.052 h

Sequence: MTLRKILALTCLLLPMMASAHQFETGQRVPPIGITDRGELVLDKDQFSYKTWNSAQLVGKVRVLQHIAGRTSAKEKNATLIEAIKSAKLPHDRYQTTTIVNTDDAIPGSGMFVRSSLESNKKLYPWSQFIVDSNGVALGAWQLDEESSAVVVLDKDGRVQWAKDGALTPEEVQQVMDLLQKLLK
- total protein half-life in vivo [6]: 3.41 ± 0.29 h
- total protein half-life in vivo [7]: 4.29 ± 0.11 h
- total protein half-life in vivo [8]: 5.19 h
- total protein half-life in vivo [9]: 5.62 ± 0.11 h
- total protein half-life in vivo [1]: 5.29 ± 0.49 h
- total protein half-life in vivo [2]: 2.78 ± 0.033 h
- total protein half-life in vivo [3]: 4.952 ± 0.046 h
- total protein half-life in vivo [4]: 7.33 ± 1.6 h
- total protein half-life in vivo [10]: 5.43 ± 0.29 h
- total protein half-life in vivo [11]: 7.61 ± 2.1 h
- total protein half-life in vivo [12]: 4.74 ± 1.5 h
- total protein half-life in vivo [5]: 8.359 ± 0.082 h

Sequence: MTLSSQHYLVITALGADRPGIVNTITRHVSSCGCNIEDSRLAMLGEEFTFIMLLSGSWNAITLIESTLPLKGAELDLLIVMKRTTARPRPPMPASVWVQVDVADSPHLIERFTALFDAHHMNIAELVSRTQPAENERAAQLHIQITAHSPASADAANIEQAFKALCTELNAQGSINVVNYSQHDEQDGVK [P0A9I3]
- total protein half-life in vivo [6]: 4.9 ± 0.79 h
- total protein half-life in vivo [7]: 4.39 ± 0.19 h
- total protein half-life in vivo [8]: 4.53 ± 0.06 h
- total protein half-life in vivo [9]: 4.62 ± 0.24 h
- total protein half-life in vivo [1]: 4.056 ± 0.037 h
- total protein half-life in vivo [2]: 2.976 ± 0.012 h
- total protein half-life in vivo [3]: 5.48 ± 0.32 h
- total protein half-life in vivo [4]: 9.43 ± 3.2 h
- total protein half-life in vivo [10]: 4.42 ± 0.34 h
- total protein half-life in vivo [11]: 7.51 ± 0.33 h
- total protein half-life in vivo [12]: 5.71 ± 0.46 h
- total protein half-life in vivo [5]: 12.1 ± 1.4 h

Sequence: MTMKKLLIIILPVLLSGCSAFNQLVERMQTDTLEYQCDEKPLTVKLNNPRQEVSFVYDNQLLHLKQGISASGARYTDGIYVFWSKGDEATVYKRDRIVLNNCQLQNPQR
- total protein half-life in vivo [6]: 5.8 ± 0.46 h
- total protein half-life in vivo [7]: 6.62 ± 0.99 h
- total protein half-life in vivo [8]: 6.27 h
- total protein half-life in vivo [9]: 6.49 ± 0.45 h
- total protein half-life in vivo [1]: 5.45 ± 0.23 h
- total protein half-life in vivo [2]: 3.27 ± 0.96 h
- total protein half-life in vivo [3]: 6.52 ± 1.3 h
- total protein half-life in vivo [4]: 13.5 ± 0.37 h
- total protein half-life in vivo [11]: 14.4 ± 0.55 h
- total protein half-life in vivo [12]: 6.32 ± 0.75 h
- total protein half-life in vivo [5]: 13.8 ± 1.6 h
